Here are results for two substances from publication doi:10.1101/421420.

Assay [1] addresses Proteus mirabilis suppressor of copper sensitivity protein C (PmScsC) (Proteus mirabilis). The assay is described as follows: SAXS.
Assay [2] concerns the target PmScsCΔLinker (Proteus mirabilis). The assay is described as follows: SAXS.
The target is the same in assay [3]. Put plainly: crystal structure.

As a reminder, the stoichiometry N is the number of molecules, sites or subunits per partner or assembly. Broadly, the Kd is the constant that tells how readily two partners part at equilibrium. Low readings indicate a tighter complex, high ones a looser complex.

In assay [1], “Proteus mirabilis suppressor of copper sensitivity protein C (PmScsC) (enzyme)” returned a percent present as monomer at 0.1 mg/mL of 1% and a stoichiometry N of 3.
Turning to PmScsCΔLinker (enzyme), in assay [2], the Kd was 200 µM, the percent dimer at 0.1 mg/mL stood at 3%, the percent dimer at 10 mg/ml worked out at 48% and the percent monomer at 0.1 mg/mL is 97%. In assay [2], the percent monomer at 10 mg/ml worked out at 40% and the percent trimer at 10 mg/ml came out at 12%. Also, the stoichiometry N in assay [3] was determined as 3.
